B1: ATXN2 peptide 913-928 (Ataxin-2), 16-mer library wild type / PABPC1 PABC (PABPC1 PABC domain, residues 544-623) (parent complex)
chain 1: TLNPNAKEFNPRSFSQ
chain 2: PLTASMLASAPPQEQKQMLGERLFPLIQAMHPTLAGKITGMLLEIDNSELLHMLESPESLRSKVDEAVAVLQAHQAKEAA

Variants of: B1
Assay: proteomic peptide phage display deep mutational scan (ProP-PD DMS): M13 P8 16-mer library selected against immobilised GST-tagged bait for four days (rounds), NGS of the eluted pools per day and pseudo-replica; bait immobilised on MaxiSorp plates (10 µg), library pre-cleared on GST, 2 h binding at 4 °C, five washes; one round per day, days 1-4; value from days 2 and 3

Point of comparison: chain 1 TLNPNAKEFRPRSFSQ [chain 1 N10R], screen value 0.000511 average fractional NGS count over selection days 2 and 3 (reads of this peptide / all reads for the bait, averaged over …. Against it:
- chain 1 VLNPNAKEFNPRSFSQ [chain 1 T1V] — higher, 0.000977 average fractional NGS count over selection days 2 and 3 (reads of this peptide / all reads for the bait, averaged over …
- chain 1 LLNPNAKEFNPRSFSQ [chain 1 T1L] — higher, 0.0036 average fractional NGS count over selection days 2 and 3 (reads of this peptide / all reads for the bait, averaged over …
- chain 1 TLNPNAKEFNQRSFSQ [chain 1 P11Q] — lower, 0.000241 average fractional NGS count over selection days 2 and 3 (reads of this peptide / all reads for the bait, averaged over …
- chain 1 TLNPNAKEFNHRSFSQ [chain 1 P11H] — higher, 0.00248 average fractional NGS count over selection days 2 and 3 (reads of this peptide / all reads for the bait, averaged over …
- chain 1 TLNPNAKEFNFRSFSQ [chain 1 P11F] — higher, 0.00198 average fractional NGS count over selection days 2 and 3 (reads of this peptide / all reads for the bait, averaged over …
- chain 1 TLNPNAKEFNMRSFSQ [chain 1 P11M] — lower, 0.000174 average fractional NGS count over selection days 2 and 3 (reads of this peptide / all reads for the bait, averaged over …
- chain 1 TLNPNAKEFNDRSFSQ [chain 1 P11D] — lower, 8.69e-05 average fractional NGS count over selection days 2 and 3 (reads of this peptide / all reads for the bait, averaged over …
- chain 1 TLNPNAKEFNSRSFSQ [chain 1 P11S] — lower, 0.000475 average fractional NGS count over selection days 2 and 3 (reads of this peptide / all reads for the bait, averaged over …
- chain 1 TLNPNAKEFNLRSFSQ [chain 1 P11L] — lower, 0.000381 average fractional NGS count over selection days 2 and 3 (reads of this peptide / all reads for the bait, averaged over …
- chain 1 TLNPNAKEFNGRSFSQ [chain 1 P11G] — higher, 0.000676 average fractional NGS count over selection days 2 and 3 (reads of this peptide / all reads for the bait, averaged over …
- chain 1 TLNPNAKEFNNRSFSQ [chain 1 P11N] — higher, 0.000672 average fractional NGS count over selection days 2 and 3 (reads of this peptide / all reads for the bait, averaged over …
- chain 1 TLNPNAKEFNYRSFSQ [chain 1 P11Y] — higher, 0.000724 average fractional NGS count over selection days 2 and 3 (reads of this peptide / all reads for the bait, averaged over …
- chain 1 TLNPNAKEFNWRSFSQ [chain 1 P11W] — lower, 0.000361 average fractional NGS count over selection days 2 and 3 (reads of this peptide / all reads for the bait, averaged over …
- chain 1 TLNPNAKNFNPRSFSQ [chain 1 E8N] — higher, 0.00138 average fractional NGS count over selection days 2 and 3 (reads of this peptide / all reads for the bait, averaged over …
- chain 1 TLNPNAKAFNPRSFSQ [chain 1 E8A] — lower, 0.000246 average fractional NGS count over selection days 2 and 3 (reads of this peptide / all reads for the bait, averaged over …
- chain 1 TLNPNATEFNPRSFSQ [chain 1 K7T] — higher, 0.000636 average fractional NGS count over selection days 2 and 3 (reads of this peptide / all reads for the bait, averaged over …
- chain 1 TLNPNAHEFNPRSFSQ [chain 1 K7H] — higher, 0.0027 average fractional NGS count over selection days 2 and 3 (reads of this peptide / all reads for the bait, averaged over …
- chain 1 TLNPNAVEFNPRSFSQ [chain 1 K7V] — higher, 0.000726 average fractional NGS count over selection days 2 and 3 (reads of this peptide / all reads for the bait, averaged over …
- chain 1 TLNPNAPEFNPRSFSQ [chain 1 K7P] — higher, 0.000615 average fractional NGS count over selection days 2 and 3 (reads of this peptide / all reads for the bait, averaged over …
- chain 1 TLNPNADEFNPRSFSQ [chain 1 K7D] — higher, 0.00119 average fractional NGS count over selection days 2 and 3 (reads of this peptide / all reads for the bait, averaged over …
- chain 1 TLNPNASEFNPRSFSQ [chain 1 K7S] — higher, 0.00126 average fractional NGS count over selection days 2 and 3 (reads of this peptide / all reads for the bait, averaged over …
- chain 1 TLNPNAFEFNPRSFSQ [chain 1 K7F] — higher, 0.00539 average fractional NGS count over selection days 2 and 3 (reads of this peptide / all reads for the bait, averaged over …
- chain 1 TLNPNAQEFNPRSFSQ [chain 1 K7Q] — higher, 0.000831 average fractional NGS count over selection days 2 and 3 (reads of this peptide / all reads for the bait, averaged over …
- chain 1 TLNPNAAEFNPRSFSQ [chain 1 K7A] — higher, 0.0221 average fractional NGS count over selection days 2 and 3 (reads of this peptide / all reads for the bait, averaged over …
- chain 1 TLNPNAIEFNPRSFSQ [chain 1 K7I] — lower, 0.000344 average fractional NGS count over selection days 2 and 3 (reads of this peptide / all reads for the bait, averaged over …
- chain 1 TLNTNAKEFNPRSFSQ [chain 1 P4T] — lower, 0.000273 average fractional NGS count over selection days 2 and 3 (reads of this peptide / all reads for the bait, averaged over …
- chain 1 TLNLNAKEFNPRSFSQ [chain 1 P4L] — higher, 0.000532 average fractional NGS count over selection days 2 and 3 (reads of this peptide / all reads for the bait, averaged over …
- chain 1 TLNINAKEFNPRSFSQ [chain 1 P4I] — higher, 0.00226 average fractional NGS count over selection days 2 and 3 (reads of this peptide / all reads for the bait, averaged over …
- chain 1 TLNPNAKEFNPNSFSQ [chain 1 R12N] — higher, 0.00143 average fractional NGS count over selection days 2 and 3 (reads of this peptide / all reads for the bait, averaged over …
- chain 1 TLNPNAKEFNPKSFSQ [chain 1 R12K] — higher, 0.000537 average fractional NGS count over selection days 2 and 3 (reads of this peptide / all reads for the bait, averaged over …
- chain 1 TLNPNAKEFNPLSFSQ [chain 1 R12L] — higher, 0.000524 average fractional NGS count over selection days 2 and 3 (reads of this peptide / all reads for the bait, averaged over …
- chain 1 TLNPNAKEFNPESFSQ [chain 1 R12E] — lower, 0.000493 average fractional NGS count over selection days 2 and 3 (reads of this peptide / all reads for the bait, averaged over …
- chain 1 TLNPNAKEFNPYSFSQ [chain 1 R12Y] — higher, 0.00157 average fractional NGS count over selection days 2 and 3 (reads of this peptide / all reads for the bait, averaged over …
- chain 1 TLNPNAKEFNPHSFSQ [chain 1 R12H] — higher, 0.00563 average fractional NGS count over selection days 2 and 3 (reads of this peptide / all reads for the bait, averaged over …
- chain 1 TLNPNAKEFNPMSFSQ [chain 1 R12M] — higher, 0.00123 average fractional NGS count over selection days 2 and 3 (reads of this peptide / all reads for the bait, averaged over …
- chain 1 TLNPNAKEFNPQSFSQ [chain 1 R12Q] — lower, 0.000478 average fractional NGS count over selection days 2 and 3 (reads of this peptide / all reads for the bait, averaged over …
- chain 1 TLNPNAKEWNPRSFSQ [chain 1 F9W] — higher, 0.00363 average fractional NGS count over selection days 2 and 3 (reads of this peptide / all reads for the bait, averaged over …
- chain 1 TLNPNAKEFPPRSFSQ [chain 1 N10P] — higher, 0.000829 average fractional NGS count over selection days 2 and 3 (reads of this peptide / all reads for the bait, averaged over …
- chain 1 TLNPNAKEFAPRSFSQ [chain 1 N10A] — higher, 0.000525 average fractional NGS count over selection days 2 and 3 (reads of this peptide / all reads for the bait, averaged over …
- chain 1 TLNPNAKEFWPRSFSQ [chain 1 N10W] — higher, 0.000811 average fractional NGS count over selection days 2 and 3 (reads of this peptide / all reads for the bait, averaged over …
- chain 1 TLNPNAKEFLPRSFSQ [chain 1 N10L] — higher, 0.00266 average fractional NGS count over selection days 2 and 3 (reads of this peptide / all reads for the bait, averaged over …
- chain 1 TLNPNAKEFDPRSFSQ [chain 1 N10D] — higher, 0.0012 average fractional NGS count over selection days 2 and 3 (reads of this peptide / all reads for the bait, averaged over …
- chain 1 TLNPNAKEFHPRSFSQ [chain 1 N10H] — lower, 0.000309 average fractional NGS count over selection days 2 and 3 (reads of this peptide / all reads for the bait, averaged over …
- chain 1 TLNPNAKEFNPRLFSQ [chain 1 S13L] — higher, 0.0013 average fractional NGS count over selection days 2 and 3 (reads of this peptide / all reads for the bait, averaged over …
- chain 1 TLNPNAKEFNPRWFSQ [chain 1 S13W] — lower, 0.000472 average fractional NGS count over selection days 2 and 3 (reads of this peptide / all reads for the bait, averaged over …
- chain 1 TLNPNAKEFNPRYFSQ [chain 1 S13Y] — higher, 0.00087 average fractional NGS count over selection days 2 and 3 (reads of this peptide / all reads for the bait, averaged over …
- chain 1 TLNPNAKEFNPRQFSQ [chain 1 S13Q] — lower, 0.000347 average fractional NGS count over selection days 2 and 3 (reads of this peptide / all reads for the bait, averaged over …
- chain 1 TLNPNAKEFNPRAFSQ [chain 1 S13A] — higher, 0.00421 average fractional NGS count over selection days 2 and 3 (reads of this peptide / all reads for the bait, averaged over …
- chain 1 TLNPNAKEFNPRPFSQ [chain 1 S13P] — higher, 0.0016 average fractional NGS count over selection days 2 and 3 (reads of this peptide / all reads for the bait, averaged over …
- chain 1 TLNPNAKEFNPRTFSQ [chain 1 S13T] — higher, 0.00197 average fractional NGS count over selection days 2 and 3 (reads of this peptide / all reads for the bait, averaged over …
- chain 1 TLNPNAKEFNPRSFWQ [chain 1 S15W] — higher, 0.00221 average fractional NGS count over selection days 2 and 3 (reads of this peptide / all reads for the bait, averaged over …
- chain 1 TLNPNAKEFNPRSFGQ [chain 1 S15G] — higher, 0.00895 average fractional NGS count over selection days 2 and 3 (reads of this peptide / all reads for the bait, averaged over …
- chain 1 TLNPNAKEFNPRSFFQ [chain 1 S15F] — lower, 0.000374 average fractional NGS count over selection days 2 and 3 (reads of this peptide / all reads for the bait, averaged over …
- chain 1 TLNPNAKEFNPRSFIQ [chain 1 S15I] — lower, 0.000409 average fractional NGS count over selection days 2 and 3 (reads of this peptide / all reads for the bait, averaged over …
- chain 1 TLNPNAKEFNPRSFVQ [chain 1 S15V] — lower, 0.000359 average fractional NGS count over selection days 2 and 3 (reads of this peptide / all reads for the bait, averaged over …
- chain 1 TLNPNAKEFNPRSFEQ [chain 1 S15E] — higher, 0.00372 average fractional NGS count over selection days 2 and 3 (reads of this peptide / all reads for the bait, averaged over …
- chain 1 TLNPNAKEFNPRSFPQ [chain 1 S15P] — higher, 0.012 average fractional NGS count over selection days 2 and 3 (reads of this peptide / all reads for the bait, averaged over …
- chain 1 TLNPNAKEFNPRSFHQ [chain 1 S15H] — lower, 0.000448 average fractional NGS count over selection days 2 and 3 (reads of this peptide / all reads for the bait, averaged over …
- chain 1 TLNPNAKEFNPRSFMQ [chain 1 S15M] — higher, 0.00397 average fractional NGS count over selection days 2 and 3 (reads of this peptide / all reads for the bait, averaged over …

Reference: paper PMC12102759 (2025)
